Data as given in patent publication US20250388623A1, “PEPTIDE INHIBITOR AND USE THEREOF” (CHENGDU BRILLIANT INSPIRATION BIOTHERAPEUTICS CO., LTD, priority 2022, published 2025).

Experiments:
[1] = target: TSP-1 protein (novoprotein, Catalog No. CU45), P07996; assay: competition ELISA, TSP-1 coated, CD36-Fc as competitor, peptide 0-100 µM
[2] = target: TSP-1 protein expressed by PMA-differentiated THP-1 macrophage-like cells, P07996; assay: cell-based or functional assay
[3] = target: TSP-1 protein (novoprotein, Catalog No. CU45), P07996; assay: competition ELISA, TSP-1 coated, CD36-Fc 0.25 µg/mL as competitor, peptide 100 µM

Chain of TSP-1 protein (novoprotein, Catalog No. CU45), P07996 (P07996 19-1170 limits assumed): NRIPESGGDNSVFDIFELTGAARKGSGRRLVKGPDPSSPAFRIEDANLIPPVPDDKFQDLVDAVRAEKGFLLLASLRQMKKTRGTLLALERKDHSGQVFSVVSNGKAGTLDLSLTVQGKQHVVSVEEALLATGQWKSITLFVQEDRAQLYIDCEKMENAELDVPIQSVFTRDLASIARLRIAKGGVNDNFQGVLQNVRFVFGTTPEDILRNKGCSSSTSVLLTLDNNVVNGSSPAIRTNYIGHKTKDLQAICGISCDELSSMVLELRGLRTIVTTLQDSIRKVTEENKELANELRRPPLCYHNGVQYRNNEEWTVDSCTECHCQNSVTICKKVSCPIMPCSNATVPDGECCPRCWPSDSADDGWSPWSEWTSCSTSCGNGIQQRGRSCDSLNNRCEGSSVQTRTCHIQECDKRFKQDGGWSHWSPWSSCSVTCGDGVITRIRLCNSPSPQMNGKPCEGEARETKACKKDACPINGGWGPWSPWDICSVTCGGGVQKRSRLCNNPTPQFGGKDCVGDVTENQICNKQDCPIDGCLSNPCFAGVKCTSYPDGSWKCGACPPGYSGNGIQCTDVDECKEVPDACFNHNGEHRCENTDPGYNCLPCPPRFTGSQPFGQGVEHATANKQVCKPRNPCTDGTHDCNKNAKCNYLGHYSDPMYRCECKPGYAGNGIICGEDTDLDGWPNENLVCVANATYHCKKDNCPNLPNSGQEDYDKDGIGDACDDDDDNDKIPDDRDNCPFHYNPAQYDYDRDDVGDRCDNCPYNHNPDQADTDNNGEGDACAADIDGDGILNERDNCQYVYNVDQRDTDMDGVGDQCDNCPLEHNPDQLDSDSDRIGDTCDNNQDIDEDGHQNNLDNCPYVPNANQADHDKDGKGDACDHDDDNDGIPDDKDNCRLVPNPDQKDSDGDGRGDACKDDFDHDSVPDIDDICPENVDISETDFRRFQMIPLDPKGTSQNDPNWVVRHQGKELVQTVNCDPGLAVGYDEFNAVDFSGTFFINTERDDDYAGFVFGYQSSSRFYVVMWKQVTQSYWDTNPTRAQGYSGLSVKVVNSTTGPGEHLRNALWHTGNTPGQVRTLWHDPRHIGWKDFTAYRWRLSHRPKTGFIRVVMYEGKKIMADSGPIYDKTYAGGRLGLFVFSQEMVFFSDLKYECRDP
Chain of TSP-1 protein expressed by PMA-differentiated THP-1 macrophage-like cells, P07996 (P07996 19-1170 limits assumed): as above

| IC50 [1] | Mean (relative fluorescence intensity), 293-TGFβ Res reporter cells (ratio to negative control) [2] | Blocking rate (Mean, %) [3] | Binder |
| --- | --- | --- | --- |
| 6.71 µM | 0.43 | 52.9% | TCDAEDNC (modifications not checked) [SEQ ID NO: 44] |
| 3.62 µM | 0.65 | 52% | TCDAEDNC (modifications not checked) [SEQ ID NO: 43] |
